# This sample holds only a part of the variants without activity.
# B1: TPR 5TU (parent)
# chain: GGAUCUUCUCGAUCUAACAAAAAAGACAAAUCUGCCACAAAGCUUGAGAGCAUCUUCGGAUGCAGAGGCGGCAGCCUUCGGUGGCGCGAUAGCGCCAACGUUCUCAACUAUGACACGCAAAACGCGUGCUCCGUUGAAUGGAGUUUAUCAUG
# Variants of: B1
# Assay: polymerase ribozyme fitness, log enrichment relative to wild type (log ratio); higher = more active; in vitro selection for triplet polymerase activity
# How it was run: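 Mutant libraries of both subunits of a heterodimeric triplet polymerase ribozyme were PCR-built, transcribed, and selected once in triplicate, with frozen incubation at −7 °C and capture of gel-excised extended constructs on streptavidin beads before RT-PCR. Illumina sequencing of input and output libraries was filtered to genotypes with ≥10 input reads and ≥1 read per output. Fitness is the logarithm of genotype enrichment over wild-type enrichment, using inverse-variance-weighted replicate averages. The logarithm is base 2.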
row,Variant,polymerase ribozyme fitness (log ratio)
1,U6A A106G G117C A147U,-0.278
2,C5U U7G A29C A49G G50C C76A C87U C131A G133A U145G,≤ -4.2
3,C5A A23G U33G A66G G83A C87U A113G G124A U127C,-3.78
4,C5G U77A G94U G140C G152A,≤ -4.2
5,A3U G92A A113G G133U A142U U146G,≤ -4.2
6,A3U U6G C35G G50U U78G C79U G141U,≤ -4.2
7,C5A A12C A19U U102G C116A A119G U135A G136C,≤ -4.2
8,U4G C75G A91U G92A U101G C125U,≤ -4.2
9,U4G C35A C79A G94A U148G,≤ -4.2
10,A3U G42U G48C C75G G86A C108A,≤ -4.2
11,C5U A91U,-3.99
12,U4G A73C G92C,-4.15
13,C5G U15A U45G U82C G92A A150U,≤ -4.2
14,C5U C105U A138U,≤ -4.2
15,C5G C32A C57U C99U,≤ -4.2
16,C5A C93U C105U C149G,-3.96
17,C5U A20C G59A A60G C69A A98G,-2.12
18,C5A A20C C96U,-0.294
19,C5U U9G A12C U33G G58A G88A A91G G94A A113C A121C,≤ -4.2
20,C5G C38G G68C U135A G141A,≤ -4.2
21,U4G C35G C95G U134A G136U,-4.16
22,C5G G67U G70C G86A C132G,≤ -4.2
23,C5G C14G A49G,-3.17
24,U6A A91C,≤ -4.2

row,Variant,polymerase ribozyme fitness (log ratio)
1,C5A C54U A73G A119G G136A,-0.371
2,C5U A142U,-0.885
3,C5G G50U G81C G92C G143A,-2.74
4,C5U A121G,0.614
5,U4A C36A A52C A73G C95U,≤ -4.2
6,U4C C10A U15G G62C A64U G80A C93A C116A U127G C131U G141U U145A,≤ -4.2
7,U4C A16U G83U U90C A113U U148C,≤ -4.2
8,A3U C108U,-3.59
9,C5A A21G A41C A64U C85A C96U A110U G117U,≤ -4.2
10,C5U A17G A49G U53G C85A A122C G141C,≤ -4.2
11,U4A A21G U55G U101G G152A,≤ -4.2
12,C5G G25C C54A C75G G83U,≤ -4.2
13,U4G U13G C93U A120G G143A U148C,≤ -4.2
14,C5A C99U,-0.267
15,C5G C8A C27U A49C U56A G94A C95G U109G,≤ -4.2
16,C5G A23C A66G C69U A91G C105G A120U,≤ -4.2
17,C5U C93U,0.375
18,C5U C93G,-3.16
19,A3U G11C U44A G58C G62A G68A G94C,≤ -4.2
20,U4A C27U G83C G117A A122G U146A,-3.14
21,C5A C14G A19G C36A U102G C132G,≤ -4.2
22,U4C A19U G50C C76U U144G,≤ -4.2
23,C5A C85U A97U G143A,-1.87
24,U4A G11A A28U G65A C72U G80U G84C A91C A97C A106C C118U G141U,≤ -4.2

row,Variant,polymerase ribozyme fitness (log ratio)
1,C5A C72U C85U C95U,-0.0103
2,C5A A20U C35U A91C U101A C105G U145G,≤ -4.2
3,C5A G25C A41C C85U A89C A115G C132G U146C U148G,≤ -4.2
4,C5A C27U U55G G83A G92U U148A,≤ -4.2
5,U4C G25U C79A C93G U111C,≤ -4.2
6,A3U U7A C14A A41C U45G C69A C87A G94A A121C,≤ -4.2
7,C5A U9C G42A A52G A66C G74A U82A A89U C123A C129A G133U,≤ -4.2
8,C5A C35A U55A A91G G100U G126A A147G,≤ -4.2
9,C5G G48C U77A C85A G100A C103G C125A,≤ -4.2
10,U4A A60C G71U G92C C108G G117A G124U A137C,≤ -4.2
11,U4G G58A,0.794
12,U6A A20C U31C C96A U127C,-1.86
13,C5G U13A,-1.14
14,C5G A16G A19G A24U A37G G50C G84U A120C G133U,≤ -4.2
15,U4A G94A,-0.663
16,U6A A60G C76A U144C,-0.452
17,U4C A21G G42A G48C G50C A64U G84C U102G U127A,≤ -4.2
18,C5A U9C C85A,-2.68
19,U4C U7C A17U A41C G68C U78A C99A C103G,≤ -4.2
20,C5A C57U G59C C96G U101G,-0.41
21,U6A A29U G81A G92C C114U,≤ -4.2
22,C5G C99A,-0.989
23,C5A G11C C32G G92U C99A C125G G136U G141U,≤ -4.2
24,U4C G58A G83A C85U,-1.97

row,Variant,polymerase ribozyme fitness (log ratio)
1,C5A U55G G68C,≤ -4.2
2,U4A G143U,-3.47
3,C5U C38U C85G U101C,-1.38
4,C5G U7A C93U A106C,-3.03
5,A3U G133U U135G,≤ -4.2
6,A3U U15C G81U A97U G128U,-3.58
7,U4C A60U G74A C93U A106U A107U A150C,≤ -4.2
8,A3U U7C A52C C95U C99U,≤ -4.2
9,C5U A41U G83A,-1.02
10,C5U C38U C54U G94U A115U A119G G136U A147U,-3.8
11,U4G G42C C76G U90C C93G A113C,≤ -4.2
12,C5A A66G C96U A115G U139G G140A,≤ -4.2
13,C5A G59A C76U U77A G84A C118G C132G,≤ -4.2
14,C5G A20C,-0.472
15,U4A A12U G84A A89G,-0.965
16,C5U U13A A17C C27G A28U A52C C85U A113C U127A U144G,≤ -4.2
17,C5G C105U,-0.0507
18,U4C A12U A21G G59A C85G G124U,-2.83
19,A3U G92A G136C,-4
20,U4G C10U G83U A98U C105U,-0.982
21,C5G C10G G92A C123U A138C G143A,≤ -4.2
22,U4G A52C G83A,-2.69
23,U4G A37U G81A C99A A106C U127G,≤ -4.2
24,C5A C18U G86U,-1.4

row,Variant,polymerase ribozyme fitness (log ratio)
1,C5G G136A,0.0107
2,U4G U15G A30G A41U G46U C69G C76U C93G G143C,≤ -4.2
3,C5U C38G C57U G84U A106C,-3
4,C5G C93A,-2.55
5,C5U U55G C79G C87A A97U A106C,≤ -4.2
6,U4G G11C U44G,≤ -4.2
7,C5G C54G U56G C95U C125U C129A G133U,≤ -4.2
8,C5G C54A G58C A73G C79A C87U C116A A138G,≤ -4.2
9,C5G A147C,-0.562
10,U4G C27G A40U C116G A137C,≤ -4.2
11,U4C G25U U61G G86U C93U G133C,≤ -4.2
12,C5G A16U C43G C93G A106U A107U,≤ -4.2
13,U4G A39G A142G,-3.9
14,C5G A23C G68C G81C G83C U101G C118U G141U,≤ -4.2
15,U6A A19C U56A G83A G124C,-1.45
16,U6A A21U U31A G74A,≤ -4.2
17,U4G C85U,-0.873
18,C5A U6G U82C C95G,-2.28
19,U4C A49U G94A A106G C123U,-1.94
20,C5U C96A,0.48
21,A3U U4C A52C G67A G83U A122U A137U U148A,≤ -4.2
22,C5U G46A A52G C85U A107U C118A A137U,≤ -4.2
23,C5G C32A C76A U109G G141C,≤ -4.2
24,U6A A41C U45A A49G G59U G86A,≤ -4.2

row,Variant,polymerase ribozyme fitness (log ratio)
1,U6A A28G G59A C93U C99G C108A G140A G141U,≤ -4.2
2,U4G C57A A73G C87U,-0.214
3,U4A G48U C57G C93U G136A U146G,-2.55
4,C5U U56A C57A C85G,-0.724
5,C5G A39G C51U A106G,≤ -4.2
6,C5A A16U G59U,-1.5
7,C5A G92C,-1.76
8,C5G G141C,-0.606
9,U4A A24U C57A C93U G94U G141U,-2.67
10,C5U A47C G59A C87U C93U,-3.16
11,C5G C8U A12U C27G G59C A66G U78C U101A C125G C131A U139C,-3.97
12,C5G C32U A91G A115G,≤ -4.2
13,U4G A41U G50C C85G,≤ -4.2
14,C5A A26U C35G A39U C76U C85U C118U A119C,-4.09
15,U4A C54U G92U C118U U134A,-3.6
16,U6A C14U U82C G86A,-4.09
17,U4G A73G A97G,0.0284
18,C5U G141C,-0.459
19,C5G A41C G46C C57G A60U G68C U135A G141A,≤ -4.2
20,U4C C38G G59A U61A U148C,≤ -4.2
21,A3U C99U,-0.307
22,U6A C14G G34A C87U C105U U145G,-4.05
23,U6A A16C C27U U31G A52C C54G C118U,≤ -4.2
24,U6A A37U G124A G126C,-2.83

row,Variant,polymerase ribozyme fitness (log ratio)
1,C5A U44C C76A G84A C131U A150U,≤ -4.2
2,U4A C54A C95A A138C,≤ -4.2
3,C5A G59C C96A A98U,-0.127
4,C5G C54A G65C A66G C85U,≤ -4.2
5,U4C C14U G42A G84A C105G,≤ -4.2
6,C5G C32U G84U,-3.82
7,A3U U55A G84A,-0.911
8,A3U U13C A41U C76U C123U,-2.89
9,C5A U9C C10G A26U U90G A137G A142U,≤ -4.2
10,U4C U7G C87A G100A U101A,≤ -4.2
11,A3U C93U C118U,-1.3
12,C5G A20G C75U C87U A119G A142G,-3.16
13,U6A C18A A21U U56G G68A A91U G128C U139A G143A,≤ -4.2
14,U4G A24C G84U G86U C108U A122G U151C,≤ -4.2
15,C5A C14G A22G A49C G50U G58C,-4.18
16,U6A A12G A17C G25C U55G A89G,-3.61
17,U4A C38U A41U G59A A137U,-4.07
18,C5A G11C C85U A119C C131G G141C,0.451
19,U4C A24U G81A C85U A89C,-0.962
20,C5G A39U C57A G59U G83U C103G C116U,≤ -4.2
21,C5A G58A G86U,-1.52
22,C5G A30U G59A C87G C108U U148A,≤ -4.2
23,U4A G92U,-0.358
